Source: patent US20240376163A1 (published 2024)
No end group written: not given here. *: point of attachment. Biotin = O=C1N[C@H]2[C@H](CS[C@H]2CCCCC(=O)*)N1

Biological target: His-tagged CNA
Assay: SPR

- Kd: 512 nM
Binder: Biotin-AAAMAGFPPEITVTPPTP [CABIN1-L-1]
